Measured values as given in US20150174221A1.

What was measured:
[1] = target: ADAMTS-4 (human) (UniProt O75173); assay: cell-based or functional assay
[2] = target: ADAMTS-5 (human) (UniProt Q9UNA0); assay: cell-based or functional assay
UniProt Q9UNA0, sequence (Q9UNA0 262-622 limits assumed): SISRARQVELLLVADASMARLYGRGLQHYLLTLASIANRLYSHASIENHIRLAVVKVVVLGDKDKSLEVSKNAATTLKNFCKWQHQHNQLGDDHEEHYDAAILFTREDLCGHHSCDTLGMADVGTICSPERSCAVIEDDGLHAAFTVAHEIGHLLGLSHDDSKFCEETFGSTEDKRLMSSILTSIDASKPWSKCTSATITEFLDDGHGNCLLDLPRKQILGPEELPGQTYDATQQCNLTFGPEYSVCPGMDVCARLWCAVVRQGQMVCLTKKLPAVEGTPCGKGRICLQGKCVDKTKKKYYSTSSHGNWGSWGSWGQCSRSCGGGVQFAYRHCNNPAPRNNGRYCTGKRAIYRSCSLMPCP

UniProt O75173, sequence (O75173 213-685 limits assumed): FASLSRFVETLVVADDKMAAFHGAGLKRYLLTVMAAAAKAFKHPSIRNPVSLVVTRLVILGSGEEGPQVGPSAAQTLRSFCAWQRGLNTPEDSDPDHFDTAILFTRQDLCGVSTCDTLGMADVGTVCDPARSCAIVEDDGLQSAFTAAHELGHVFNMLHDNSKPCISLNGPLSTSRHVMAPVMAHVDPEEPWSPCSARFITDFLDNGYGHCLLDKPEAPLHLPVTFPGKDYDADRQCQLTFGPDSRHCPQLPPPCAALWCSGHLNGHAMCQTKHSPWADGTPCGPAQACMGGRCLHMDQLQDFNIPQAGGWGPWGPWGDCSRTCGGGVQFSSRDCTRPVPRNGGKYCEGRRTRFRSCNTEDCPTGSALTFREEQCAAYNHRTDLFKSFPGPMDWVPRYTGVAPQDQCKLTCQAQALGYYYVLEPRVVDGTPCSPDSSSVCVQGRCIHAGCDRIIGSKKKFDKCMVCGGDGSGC

- IC50 needed to inhibit cartilage catabolism by the protease [1]: 3 µg/mL
- IC50 for inhibiting cartilage catabolism of bovine cartilage explants by 500 ng/ml ADAMTS-5 [2]: 7 µg/mL
- IC50 needed to inhibit cartilage catabolism by the protease [2]: 7 µg/mL
- Maximum inhibition of ADAMTS-5-induced cartilage catabolism [2]: 90%
Substance: purified human A2M (alpha-2-macroglobulin) (from UniProt P01023 24-1474)
